The labels stand for the following.
B1: Azoarcus group I ribozyme (parent)
chain: GUGCCUUGCGCCGGGAAACCACGCAAGGGAUGGUGUCAAAUUCGGCGAAACCUAAGCGCCCGCCCGGGCGUAUGGCAACGCCGAGCCAAGCUUCGGCGCCUGCGCCGAUGAAGGUGUAGAGACUAGACGGCACCCACCUAAGGCAAACGCUAUGGUGAAGGCAUAGUCCAGGGAGUGGCGAAAGUCACACAAACCGG

In the data set the parent is B1. Kind of data set: reverse-splicing fitness (ratio to wild type); higher = more active; in vitro selection; Mg2+ level not given. The gist of the method: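 An in vitro group I ribozyme library with randomized positions was T7-transcribed and gel-purified. In triplicate, 10 pmol RNA in EPPS pH 7.5 was reacted with 50 pmoles of a 30-nt RNA substrate for 1 h at 37 °C across several added MgCl2 levels (1–48 mM), then stopped with EDTA. Products were reverse transcribed from a substrate-complementary primer, PCR-amplified and sequenced (HiSeq 4000). Fitness is a variant's read proportion after selection over that before, normalised to wild type.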
Take A111C A120C A145U C150G C169U U176C: the reverse-splicing fitness stood at 0.0173. To A111C A120C A145U C150G C169U U176A belongs 0.00997.

Regarding A111C A120C A145U C150G C169U U176G, the reverse-splicing fitness worked out at 0.00656.

Consider A111C A120C C150U U176A, for which the reverse-splicing fitness was 0.128. As for A111C A120C C150U U176C, the figure is 0.153. As for A111C A120C C150U U176G, the figure is 0.0275; as for A111C A120G A145C C150G C169U, 0.0248. To A111C A120G A145C C150G C169G belongs 0.0238; to A111C A120G A145C C150G C169A, 0.015; to A111C A120C A145C C169U U176C, 0.0413. A111C A120C A145C C169U U176A: the reverse-splicing fitness stood at 0.0332. To A111C A120C A145C C169U U176G belongs 0.006; to A111C A120C A145C C169G U176A, 0.0217. As for A111C A120C A145C C169G U176C, the figure is 0.0167. To A111C A120C A145C C169G U176G belongs 0.00634; to A111C A120C A145U C150G C169A, 0.00797; to A111C A120C A145U C150G C169U, 0.0234. For A111C A120C A145U C150G C169G, the reverse-splicing fitness was determined as 0.00671.

For A111C A120C A145U C150A C169A U176G, the reverse-splicing fitness came to 0.0061.

A111C A120C A145U C150A C169A U176A: the reverse-splicing fitness worked out at 0.0108.

For the variant A111C A120C A145U C150A C169A U176C, the reverse-splicing fitness was determined as 0.0085. As for A111C A120C C150A C169A U176A, the figure is 0.0162. As for A111C A120C C150A C169A U176G, the figure is 0.00693. To A111C A120C C150A C169A U176C belongs 0.0141; to A111C A120C C150G C169A U176A, 0.00884; to A111C A120C C150G C169A U176G, 0.00561. Turning to A111C A120C C150G C169A U176C, the reverse-splicing fitness worked out at 0.00966. As for A111C A120C C150A U176G, the figure is 0.0118; as for A111C A120C C150A U176C, 0.0495.

Take A111C A120C C150A U176A: the reverse-splicing fitness came out at 0.0343. Regarding A111C A120C A145U C150U C169G U176C, the reverse-splicing fitness was 0.0132. Regarding A111C A120C A145U C150U C169G U176G, the reverse-splicing fitness is 0.00667. To A111C A120C A145U C150U C169G U176A belongs 0.0128. To A111C A120C C150A C169G U176C belongs 0.021. As for A111C A120C C150A C169G U176A, the figure is 0.0198; as for A111C A120C C150A C169G U176G, 0.00744; as for A111C A120C C169A U176G, 0.00631. As for A111C A120C C169A U176A, the reverse-splicing fitness was 0.0152. As for A111C A120C C169A U176C, the figure is 0.0161; as for A111C A120C A145U C150U U176C, 0.174. To A111C A120C A145U C150U U176G belongs 0.0336; to A111C A120C A145U C150U U176A, 0.146. As for A111C A120C C169G U176C, the figure is 0.021; as for A111C A120C C169G U176G, 0.00524. As to A111C A120C C169G U176A, the reverse-splicing fitness came out at 0.0157. As for A111C A120G A145C C150G C169U U176G, the figure is 0.004.

With A111C A120G A145C C150G C169U U176C, the reverse-splicing fitness amounted to 0.013. As for A111C A120G A145C C150G C169U U176A, the figure is 0.0111; as for A111C A120C C150U C169G U176G, 0.00557; as for A111C A120C C150U C169G U176C, 0.0164. As for A111C A120C C150U C169G U176A, the figure is 0.0124; as for A111C A120C U176G, 0.0393. As for A111C A120C U176A, the figure is 0.186; as for A111C A120C U176C, 0.204; as for A111C A120G A145G C150U C169G U176A, 0.0243. On to A111C A120G A145G C150A C169G U176A, for which the reverse-splicing fitness was 0.0195. To A111C A120G A145G C150A C169G U176C belongs 0.0342. To A111C A120G A145G C150A C169G U176G belongs 0.00523. To A111C A120C A145U C150U C169A belongs 0.0112; to A111C A120C A145U C150U C169U, 0.125.

On to A111C A120C A145U C150U C169G, for which the reverse-splicing fitness was 0.00917. Turning to A111C A120G A145C C150A C169G U176G, the reverse-splicing fitness amounted to 0.00527. As for A111C A120G A145C C150A C169G U176A, the figure is 0.024. As for A111C A120G A145C C150A C169G U176C, the figure is 0.0161; as for A111C A120G A145C C150A U176G, 0.00357.

With A111C A120G A145C C150A U176C, the reverse-splicing fitness is 0.0118. In the case of A111C A120G A145C C150A U176A, the reverse-splicing fitness is 0.0112. For A111C A120C C150A C169U U176C, the reverse-splicing fitness came to 0.0224. As for A111C A120C C150A C169U U176A, the figure is 0.0208; as for A111C A120C C150A C169U U176G, 0.00635.

With A111C A120G A145G C150A C169U U176G, the reverse-splicing fitness was determined as 0.00466. As for A111C A120G A145G C150A C169U U176A, the figure is 0.0227; as for A111C A120G A145G C150A C169U U176C, 0.0241; as for A111C A120C C150A, 0.0821. As for A111C A120C C150U, the reverse-splicing fitness came out at 0.362. As for A111C A120C C150G, the figure is 0.0496; as for A111C A120C A145G C150A C169A U176A, 0.0145. To A111C A120C A145G C150A C169A U176G belongs 0.00677.

A111C A120C A145G C150A C169A U176C: the reverse-splicing fitness worked out at 0.0214. A111C A120G A145C C169G U176C: the reverse-splicing fitness came out at 0.0399. To A111C A120G A145C C169G U176A belongs 0.0348; to A111C A120G A145C C169G U176G, 0.00459; to A111C A120C A145G C169G U176C, 0.0244.

The values above are taken from the RNAGym collection of RNA variant scans (doi:10.1093/molbev/msab373).
